Data from PMC4717663 (2014).

Biological target: pro-TGF-β1 (Homo sapiens, UniProt P01137)
Sequence (P01137 30-278, chain 1 of 2): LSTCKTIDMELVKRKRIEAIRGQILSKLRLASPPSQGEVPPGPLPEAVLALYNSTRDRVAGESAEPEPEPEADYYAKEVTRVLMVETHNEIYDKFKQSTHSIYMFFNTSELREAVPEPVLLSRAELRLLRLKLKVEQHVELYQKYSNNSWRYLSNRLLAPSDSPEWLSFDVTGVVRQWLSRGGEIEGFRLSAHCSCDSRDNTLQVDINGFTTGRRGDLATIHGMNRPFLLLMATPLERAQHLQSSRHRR
Sequence (P01137 279-390, chain 2 of 2): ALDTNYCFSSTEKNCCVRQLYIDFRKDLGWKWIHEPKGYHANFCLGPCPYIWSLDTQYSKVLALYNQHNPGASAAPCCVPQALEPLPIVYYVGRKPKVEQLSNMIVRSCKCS

B1: integrin αVβ6 (protein)
chain 1: FNLDVDSPAEYSGPEGSYFGFAVDFFVPSASSRMFLLVGAPKANTTQPGIVEGGQVLKCDWSSTRRCQPIEFDATGNRDYAKDDPLEFKSHQWFGASVRSKQDKILACAPLYHWRTEMKQEREPVGTCFLQDGTKTVEYAPCRSQDIDADGQGFCQGGFSIDFTKADRVLLGGPGSFYWQGQLISDQVAEIVSKYDPNVYSIKYNNQLATRTAQAIFDDSYLGYSVAVGDFNGDGIDDFVSGVPRAARTLGMVYIYDGKNMSSLYNFTGEQMAAYFGFSVAATDINGDDYADVFIGAPLFMDRGSDGKLQEVGQVSVSLQRASGDFQTTKLNGFEVFARFGSAIAPLGDLDQDGFNDIAIAAPYGGEDKKGIVYIFNGRSTGLNAVPSQILEGQWAARSMPPSFGYSMKGATDIDKNGYPDLIVGAFGVDRAILYRARPVITVNAGLEVYPSILNQDNKTCSLPGTALKVSCFNVRFCLKADGKGVLPRKLNFQVELLLDKLKQKGAIRRALFLYSRSPSHSKNMTISRGGLMQCEELIAYLRDESEFRDKLTPITIFMEYRLDYRTAADTTGLQPILNQFTPANISRQAHILLDCGEDNVCKPKLEVSVDSDQKKIYIGDDNPLTLIVKAQNQGEGAYEAELIVSIPLQADFIGVVRNNEALARLSCAFKTENQTRQVVCDLGNPMKAGTQLLAGLRFSVHQQSEMDTSVKFDLQIQSSNLFDKVSPVVSHKVDLAVLAAVEIRGVSSPDHVFLPIPNWEHKENPETEEDVGPVVQHIYELRNNGPSSFSKAMLHLQWPYKYNNNTLLYILHYDIDGPMNCTSDMEINPLRIKISSLQTTEKNDTVAGQGERDHLITKRDLALSEGDIHTLGCGVAQCLKIVCQVGRLDRGKSAILYVKSLLWTETFMNKENQNHSYSLKSSASFNVIEFPYKNLPIEDITNSTLVTTNVTWGIQPAPMPV
chain 2: GCALGGAETCEDCLLIGPQCAWCAQENFTHPSGVGERCDTPANLLAKGCQLNFIENPVSQVEILKNKPLSVGRQKNSSDIVQIAPQSLILKLRPGGAQTLQVHVRQTEDYPVDLYYLMDLSASMDDDLNTIKELGSRLSKEMSKLTSNFRLGFGSFVEKPVSPFVKTTPEEIANPCSSIPYFCLPTFGFKHILPLTNDAERFNEIVKNQKISANIDTPEGGFDAIMQAAVCKEKIGWRNDSLHLLVFVSDADSHFGMDSKLAGIVIPNDGLCHLDSKNEYSMSTVLEYPTIGQLIDKLVQNNVLLIFAVTQEQVHLYENYAKLIPGATVGLLQKDSGNILQLIISAYEELRSEVELEVLGDTEGLNLSFTAICNNGTLFQHQKKCSHMKVGDTASFSVTVNIPHCERRSRHIIIKPVGLGDALELLVSPECNCDCQKEVEVNSSKCHHGNGSFQCGVCACHPGHMGPRCECGEDMLSTDSCKEAPDHPSCSGRGDCYCGQCICHLSPYGNIYGPYCQCDNFSCVRHKGLLCGGNGDCDCGECVCRSGWTGEYCNCTTSTDSCVSEDGVLCSGRGDCVCGKCVCTNPGASGPTCERCPTCGDPCNSKRSCIECHLSAAGQAREECVDKCKLAGATISEEEDFSKDGSVSCSLQGENECLITFLITTDNEGKTIIHSINEKDCPKPPNIP
- Kd: ~10 nM
